US20070280945A1 (Regeneron, published 2007)

What was measured:
[1] = target: hIL-6R on hIL-6-responsive human cells (XG-1 myeloma line, HepG2 hepatoma line) (human) (UniProt P08887); experiment: cell-based or functional assay
[2] = target: recombinant hIL-6R protein, monomeric form (human) (UniProt P08887); experiment: SPR (BIAcore), captured antibody, monomeric hIL-6R
[3] = target: recombinant hIL-6R protein, monomeric form (human) (UniProt P08887); experiment: Kinexa solution-phase competition immunoassay, monomeric hIL-6R
[4] = target: Recombinant monkey monomeric IL-6R protein (Macaca fascicularis, extracellular domain) (Macaca fascicularis); experiment: SPR (BIAcore), captured antibody, monomeric IL-6R 1.25-40 nM injected
[5] = target: recombinant hIL-6R protein, monomeric form (human) (UniProt P08887); experiment: as above
[6] = target: hIL-6R-hFc (human) (UniProt P08887); experiment: blocking ELISA: 100 pM hIL-6R-hFc premixed with varied antibody, free hIL-6R-hFc captured on hIL-6-coated plate
[7] = target: T1, recombinant hIL-6R protein, monomeric form (human, UniProt P08887 20-358); experiment: SPR (BIAcore), captured antibody, monomeric hIL-6R
T1 construct: also called monomeric hIL-6R; Human IL6R
T1 sequence: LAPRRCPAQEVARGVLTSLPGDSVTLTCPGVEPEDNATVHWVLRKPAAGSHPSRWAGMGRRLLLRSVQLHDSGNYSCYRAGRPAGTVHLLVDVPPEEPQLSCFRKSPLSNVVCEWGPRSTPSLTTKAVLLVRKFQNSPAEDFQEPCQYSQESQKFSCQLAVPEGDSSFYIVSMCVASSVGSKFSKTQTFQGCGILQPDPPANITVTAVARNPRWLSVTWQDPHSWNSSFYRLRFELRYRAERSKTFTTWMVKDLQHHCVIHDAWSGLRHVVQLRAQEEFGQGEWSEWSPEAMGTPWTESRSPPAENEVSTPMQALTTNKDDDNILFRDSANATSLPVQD

[8] = target: T2, hIL-6R-hFc (human, UniProt P08887 20-358); experiment: competition ELISA: antibody premixed with serial dilutions of hIL-6R-hFc, free antibody detected on hIL-6R-hFc-coated plate
T2 construct: also called dimeric hIL-6R; Dimer; not shown: human Fc (hFc)
T2 sequence: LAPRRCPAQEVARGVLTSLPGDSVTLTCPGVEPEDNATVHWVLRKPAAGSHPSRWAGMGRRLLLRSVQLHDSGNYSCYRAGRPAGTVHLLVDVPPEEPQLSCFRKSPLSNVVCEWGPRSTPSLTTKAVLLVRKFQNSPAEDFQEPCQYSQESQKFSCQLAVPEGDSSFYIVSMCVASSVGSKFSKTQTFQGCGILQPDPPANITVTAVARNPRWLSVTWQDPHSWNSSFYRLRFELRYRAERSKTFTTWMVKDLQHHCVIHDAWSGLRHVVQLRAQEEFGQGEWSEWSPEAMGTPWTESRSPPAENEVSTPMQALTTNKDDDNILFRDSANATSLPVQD

[9] = target: T3, hIL-6R on hIL-6-responsive human cells (XG-1 myeloma line, HepG2 hepatoma line) (human, UniProt P08887 20-468); experiment: cell-based or functional assay
T3 sequence (looked up): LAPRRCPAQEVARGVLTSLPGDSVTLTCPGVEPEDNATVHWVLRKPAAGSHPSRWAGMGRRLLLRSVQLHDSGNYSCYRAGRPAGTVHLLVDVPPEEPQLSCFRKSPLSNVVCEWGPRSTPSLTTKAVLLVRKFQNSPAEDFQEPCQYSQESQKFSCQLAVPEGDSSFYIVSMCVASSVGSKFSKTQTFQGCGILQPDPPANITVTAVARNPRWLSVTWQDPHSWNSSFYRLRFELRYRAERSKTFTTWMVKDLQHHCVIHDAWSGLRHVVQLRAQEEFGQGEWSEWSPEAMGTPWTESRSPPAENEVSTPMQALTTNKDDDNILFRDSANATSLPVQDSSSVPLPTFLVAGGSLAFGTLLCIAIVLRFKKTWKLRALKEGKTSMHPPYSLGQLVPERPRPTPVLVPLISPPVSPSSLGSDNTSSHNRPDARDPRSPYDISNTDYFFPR

[10] = target: T3, hIL-6R on hIL-6-responsive human cells …; experiment: cell-based or functional assay; remark: listed apart in the source
[11] = target: T1, recombinant hIL-6R protein, monomeric …; experiment: Kinexa solution-phase competition immunoassay, monomeric hIL-6R
[12] = target: T4, hIL-6R recombinant protein (plate-coated, Example 5) (human, UniProt P08887 20-358, limits assumed); experiment: SPR (BIAcore) competition on hIL-6R; competitor: control antibody
T4 construct: also called antigen
T4 sequence: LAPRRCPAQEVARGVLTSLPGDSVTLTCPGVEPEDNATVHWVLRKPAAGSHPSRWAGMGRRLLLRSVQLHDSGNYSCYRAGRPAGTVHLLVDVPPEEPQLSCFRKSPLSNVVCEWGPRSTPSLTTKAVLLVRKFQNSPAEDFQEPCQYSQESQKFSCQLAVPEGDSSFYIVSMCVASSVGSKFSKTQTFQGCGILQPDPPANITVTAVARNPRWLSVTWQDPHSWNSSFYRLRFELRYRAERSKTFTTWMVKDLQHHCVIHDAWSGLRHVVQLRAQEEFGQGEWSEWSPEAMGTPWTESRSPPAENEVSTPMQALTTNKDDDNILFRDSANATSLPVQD

[13] = target: T1, recombinant hIL-6R protein, monomeric …; experiment: SPR (BIAcore), captured mouse-IgG antibody, monomeric hIL-6R 1.56-12.5 nM
[14] = target: T2, hIL-6R-hFc; experiment: SPR (BIAcore), antibody captured on anti-mouse IgG surface, dimeric hIL-6R
[15] = target: T1, recombinant hIL-6R protein, monomeric …; experiment: SPR (BIAcore), antibody captured on anti-mouse IgG surface, monomeric hIL-6R
[16] = target: T1, recombinant hIL-6R protein, monomeric …; experiment: SPR (BIAcore), antibody captured on goat anti-mouse Fc, monomeric IL-6R 1.25-40 nM injected
[17] = target: T5, Recombinant monkey monomeric IL-6R protein (Macaca fascicularis, extracellular domain) (Macaca fascicularis, UniProt P08887 21-330 (human entry)); experiment: as above
T5 construct: also called Monkey IL6R; monkey IL-6R
T5 chain: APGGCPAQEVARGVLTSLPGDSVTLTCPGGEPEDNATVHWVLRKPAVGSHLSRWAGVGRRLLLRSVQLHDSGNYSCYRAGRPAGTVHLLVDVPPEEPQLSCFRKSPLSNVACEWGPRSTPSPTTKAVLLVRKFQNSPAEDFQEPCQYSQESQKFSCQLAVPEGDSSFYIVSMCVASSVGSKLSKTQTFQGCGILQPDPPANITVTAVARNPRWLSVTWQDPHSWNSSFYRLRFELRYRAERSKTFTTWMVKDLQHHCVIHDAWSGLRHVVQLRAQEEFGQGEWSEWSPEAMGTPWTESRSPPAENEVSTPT

[18] = target: T2, hIL-6R-hFc; experiment: SPR (BIAcore): hIL-6R-hFc captured, antibody injected, then 50 nM hIL-6; percent reduction in hIL-6 binding
[19] = target: T2, hIL-6R-hFc; experiment: blocking ELISA: 100 pM hIL-6R-hFc premixed with varied antibody, free hIL-6R-hFc captured on hIL-6-coated plate
[20] = target: T4, hIL-6R recombinant protein …; experiment: competition ELISA on hIL-6R-coated plate presaturated with competitor control antibody; test antibody 50 ng/ml
[21] = target: T5, Recombinant monkey monomeric IL-6R …; experiment: SPR (BIAcore); reference: binding to human IL-6R; end of range tied to this antibody by Table 4 (0.569 against 0.377 nM)

humanized monoclonal antibody to human IL-6R (U.S. Patent No. 5,817,790 SEQ ID NO:69 and 71), sequence (VH): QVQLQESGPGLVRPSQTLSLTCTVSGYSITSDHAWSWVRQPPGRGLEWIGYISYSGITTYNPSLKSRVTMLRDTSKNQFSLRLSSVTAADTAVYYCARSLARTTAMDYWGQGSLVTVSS
humanized monoclonal antibody to human IL-6R (U.S. Patent No. 5,817,790 SEQ ID NO:69 and 71), sequence (VL): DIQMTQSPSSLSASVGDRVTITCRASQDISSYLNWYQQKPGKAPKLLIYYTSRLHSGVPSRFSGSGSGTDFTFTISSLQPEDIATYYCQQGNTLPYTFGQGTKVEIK

| Molecule | IC50 [8] [nM] | HepG2/Stat3 Luciferase activity IC50 [9] [nM] | XG-1 cell proliferation Inhibition IC50 [9] [nM] | HepG2/STAT3 luciferase assay IC50 [10] [nM] | Kd [11] [nM] | % reduction of binding by control antibody [12] [%] | Kd [13] [nM] | koff [13] [s⁻¹] | kon [13] [M⁻¹ s⁻¹] | Kd [14] [nM] | Kd [15] [nM] | Kd [16] [nM] | koff [16] [s⁻¹] | kon [16] [M⁻¹ s⁻¹] | Kd [17] [nM] | koff [17] [s⁻¹] | kon [17] [M⁻¹ s⁻¹] | hIL6/hIL6R Binding Inhibition (%) [18] [%] | IC50 [19] [nM] | % reduction of binding by control antibody [20] [%] | further results |
| --- | --- | --- | --- | --- | --- | --- | --- | --- | --- | --- | --- | --- | --- | --- | --- | --- | --- | --- | --- | --- | --- |
| humanized monoclonal antibody to human IL-6R (U.S. Patent No. 5,817,790 SEQ ID NO:69 and 71) |  |  |  |  |  |  |  |  |  |  |  |  |  |  |  |  |  |  |  |  | HepG2/Stat3 Luciferase activity IC50 [1]: 0.854 nM; XG-1 cell proliferation Inhibition IC50 [1]: 1.5 nM; Kd [2]: 1.79 nM; Kd [3]: 1.96 nM; Kd [4]: 1.17 nM; Kd [5]: 0.963 nM; IC50 [6]: 2.2 nM |
| 248982-13-2-A9 (antibody, V domains shown) VH: QVQLVQSGGGLVQPGRSLRLSCAASGFTFDDYAMHWVRQAPGKGLEWVSGISWNSGRVGYADSVKGRFTISRDNAKNSLYLQMNSLRAEDTALYYCTKGRDAFDIWGQGTMVTVSS VL: DIVMTQSPSSVSASVGDRVTITCRASQGISSWLAWYQQKPGKAPKLLIYAASSLQSGVPSRFSGSGSGTDFTLTISSLQPEDFATYYCQQANSFPYTFGQGTKLEIK | 0.054 |  |  |  |  |  |  |  |  |  |  |  |  |  |  |  |  |  |  |  | Kd [7]: 2.87 nM |
| VV6A9-5 (antibody, V domains shown, Human variable regions with mouse constant region; also called VV6A9-5 mIgG2a) VH: EVQLVESGGGLVQPGRSLRLSCAASGFTFDDYALHWVRQAPGKGLEWVSGVSWNGGRIGYADSVKGRFTISRDNAKNSLFLQMNSLRVEDTALYYCAKGRDAFDIWGQGTLVTVSS VL: DIQMTQSPSSVSASVGDRVTITCRASQGISSWLAWYQQKPGKAPKLLIYAASSLQSGVPSRFSGSGSGTDFTLTISSLQPEDFATYYCQHAYSFPYTFGQGTKLEIK | 0.005 | 0.188 | 1.1 | 0.188 | 0.032 | 96 | 0.097 | 7.52e-05 | 772000 | 0.146 | 0.097 | 0.162 | 8.41e-05 | 518000 | 0.154 | 7.7e-05 | 500000 | 100 | 0.35 | 84 |  |
| VQ8A9-6 (antibody, V domains shown, Human variable regions with mouse constant region (hybridoma-derived chimeric antibody); also called VQ8A9-6 mIgG1) VH: EVQLVESGGNLVQPGRSLRLSCAASGFIFDDYAMHWVRQAPGKGLEWVSGISWNSGSIGYADSVKGRFTISRDNAKNSLYLQMNSLRAEDTALYYCAKDGGSSWLPFVYYYGMDVWGQGTTVTVSS VL: EIVMTQSPATLSVSPGERATLSCRASQSISSNFAWYQQKPGQAPRLLIYGASTRATGIPARFSGSGSGTDFTLTISSLQSEDFAVYYCQQYSSWPPYTFGQGTKLEIK | 0.004 | 0.097 | 0.4 | 0.097 | 0.12 | 26 | 0.222 | 0.000221 | 995000 | 0.101 | 0.222 | 0.377 | 0.000276 | 732000 | 0.569 | 0.000416 | 731000 | 68 | 0.39 | 3 | fold difference of KD, monkey against human receptor [21]: 1.5 fold |
